Assay results as given in the Human Domainome abundance scans (Beltran et al. 2025).
± gives the uncertainty stated by the source.

B1: Friend leukemia integration 1 transcription factor, residues 116 to 197; numbered along this chain, Q01543 (parent)
chain: NMTTNERRVIVPADPTLWTQEHVRQWLEWAIKEYSLMEIDTSFFQNMDGKELCKMNKEDFLRATTLYNTEVLLSHLSYLRES

Variants of: B1
Experiment: abundance fitness (aPCA) (normalised: wild type 0, dead -1); higher = more abundant; growth selection in yeast, the domain comes from the species named
Settings: Homo sapiens

| Variant | abundance fitness |
| --- | --- |
| NMTTNERRVIVPADPTLWTQEHVRQWLEWAIKEYSLMEIDTSFFQNMDGKELCKMNKEDFLRATTLYNAEVLLSHLSYLRES [T69A] | 0.084 ± 0.11 |
| NMTTNERRVIVPADPTLWTQEHVRQWLEWAIKEYSLMEIDTSFFQNMDGKELCKMNKEDFLRATTLYNYEVLLSHLSYLRES [T69Y] | -0.295 ± 0.2 |
| NMTTNERRVIVPADPTLWTQEHVRQWLEWAIKEYSLMEIDTSFFQNMDGKELCKMNKEDFLRATTLYNSEVLLSHLSYLRES [T69S] | -0.028 ± 0.06 |
| NMTTNERRVIVPADPTLWTQEHVRQWLEWAIKEYSLMEIDTSFFQNMDGKELCKMNKEDFLRATTLYNEEVLLSHLSYLRES [T69E] | -0.673 ± 0.19 |
| NMTTNERRVIVPADPTLWTQEHVRQWLEWAIKEYSLMEIDTSFFQNMDGKELCKMNKEDFLRATTLYNFEVLLSHLSYLRES [T69F] | -0.799 ± 0.29 |
| NMTTNERRVIVPADPTLWTQEHVRQWLEWAIKEYSLMEIDTSFFQNMDGKELCKMNKEDFLRATTLYNKEVLLSHLSYLRES [T69K] | -0.816 ± 0.32 |
| NMTTNERRVIVPADPTLWTQEHVRQWLEWAIKEYSLMEIDTSFFQNMDGKELCKMNKEDFLRATTLYNQEVLLSHLSYLRES [T69Q] | -0.744 ± 0.18 |
| NMTTNERRVIVPADPTLWTQEHVRQWLEWAIKEYSLMEIDTSFFQNMDGKELCKMNKEDFLRATTLYNGEVLLSHLSYLRES [T69G] | -0.184 ± 0.079 |
| NMTTNERRVIVPADPTLWTQEHVRQWLEWAIKEYSLMEIDTSFFQNMDGKELCKMNKEDFLRATTLYNCEVLLSHLSYLRES [T69C] | -0.214 ± 0.12 |
| NMTTNERRVIVPADPTLWTQEHVRQWLEWAIKEYSLMEIDTSFFQNMDGKELCKMNKEDFLRATTLYNLEVLLSHLSYLRES [T69L] | -0.561 ± 0.094 |
| NMTTNERRVIVPADPTLWTQEHVRQWLEWAIKEYSLMEIDTSFFQNMDGKELCKMNKEDFLRATTLYNMEVLLSHLSYLRES [T69M] | -0.444 ± 0.086 |
| NMTTNERRVIVPADPTLWTQEHVRQWLEWAIKEYSLMEIDTSFFQNMDGKELCKMNKEDFLRATTLYNTEGLLSHLSYLRES [V71G] | -0.677 ± 0.13 |
| NMTTNERRVIVPADPTLWTQEHVRQWLEWAIKEYSLMEIDTSFFQNMDGKELCKMNKEDFLRATTLYNTECLLSHLSYLRES [V71C] | 0.094 ± 0.16 |
| NMTTNERRVIVPADPTLWTQEHVRQWLEWAIKEYSLMEIDTSFFQNMDGKELCKMNKEDFLRATTLYNTEILLSHLSYLRES [V71I] | 0.263 ± 0.17 |
| NMTTNERRVIVPADPTLWTQEHVRQWLEWAIKEYSLMEIDTSFFQNMDGKELCKMNKEDFLRATTLYNTEFLLSHLSYLRES [V71F] | -0.215 ± 0.13 |
| NMTTNERRVIVPADPTLWTQEHVRQWLEWAIKEYSLMEIDTSFFQNMDGKELCKMNKEDFLRATTLYNTEALLSHLSYLRES [V71A] | -0.006 ± 0.086 |
| NMTTNERRVIVPADPTLWTQEHVRQWLEWAIKEYSLMEIDTSFFQNMDGKELCKMNKEDFLRATTLYNTEELLSHLSYLRES [V71E] | -0.368 ± 0.18 |

| Variant | abundance fitness |
| --- | --- |
| NMTTNERRVIVPADPTLWTQEHVRQWLEWAIKEYSLMEIDTSFFQNMDGKELCKMNKEDFLRATTLYYTEVLLSHLSYLRES [N68Y] | -0.797 ± 0.29 |
| NMTTNERRVIVPADPTLWTQEHVRQWLEWAIKEYSLMEIDTSFFQNMDGKELCKMNKEDFLRATTLYNTDVLLSHLSYLRES [E70D] | 0.092 ± 0.12 |
| NMTTNERRVIVPADPTLWTQEHVRQWLEWAIKEYSLMEIDTSFFQNMDGKELCKMNKEDFLRATTLYNTVVLLSHLSYLRES [E70V] | -0.363 ± 0.089 |
| NMTTNERRVIVPADPTLWTQEHVRQWLEWAIKEYSLMEIDTSFFQNMDGKELCKMNKEDFLRATTLYNTSVLLSHLSYLRES [E70S] | -0.107 ± 0.071 |
| NMTTNERRVIVPADPTLWTQEHVRQWLEWAIKEYSLMEIDTSFFQNMDGKELCKMNKEDFLRATTLYNTPVLLSHLSYLRES [E70P] | -0.859 ± 0.28 |
| NMTTNERRVIVPADPTLWTQEHVRQWLEWAIKEYSLMEIDTSFFQNMDGKELCKMNKEDFLRATTLYNTHVLLSHLSYLRES [E70H] | -0.001 ± 0.17 |
| NMTTNERRVIVPADPTLWTQEHVRQWLEWAIKEYSLMEIDTSFFQNMDGKELCKMNKEDFLRATTLYNTTVLLSHLSYLRES [E70T] | -0.213 ± 0.081 |
| NMTTNERRVIVPADPTLWTQEHVRQWLEWAIKEYSLMEIDTSFFQNMDGKELCKMNKEDFLRATTLYNTQVLLSHLSYLRES [E70Q] | -0.078 ± 0.11 |
| NMTTNERRVIVPADPTLWTQEHVRQWLEWAIKEYSLMEIDTSFFQNMDGKELCKMNKEDFLRATTLYNTAVLLSHLSYLRES [E70A] | -0.598 ± 0.12 |
| NMTTNERRVIVPADPTLWTQEHVRQWLEWAIKEYSLMEIDTSFFQNMDGKELCKMNKEDFLRATTLYNTIVLLSHLSYLRES [E70I] | -0.726 ± 0.46 |
| NMTTNERRVIVPADPTLWTQEHVRQWLEWAIKEYSLMEIDTSFFQNMDGKELCKMNKEDFLRATTLYNTLVLLSHLSYLRES [E70L] | -0.507 ± 0.079 |
| NMTTNERRVIVPADPTLWTQEHVRQWLEWAIKEYSLMEIDTSFFQNMDGKELCKMNKEDFLRATTLYNTMVLLSHLSYLRES [E70M] | -0.239 ± 0.11 |
| NMTTNERRVIVPADPTLWTQEHVRQWLEWAIKEYSLMEIDTSFFQNMDGKELCKMNKEDFLRATTLYNTKVLLSHLSYLRES [E70K] | -0.167 ± 0.12 |
| NMTTNERRVIVPADPTLWTQEHVRQWLEWAIKEYSLMEIDTSFFQNMDGKELCKMNKEDFLRATTLYNTWVLLSHLSYLRES [E70W] | -0.944 ± 0.21 |
| NMTTNERRVIVPADPTLWTQEHVRQWLEWAIKEYSLMEIDTSFFQNMDGKELCKMNKEDFLRATTLYNTCVLLSHLSYLRES [E70C] | -0.448 ± 0.14 |
| NMTTNERRVIVPADPTLWTQEHVRQWLEWAIKEYSLMEIDTSFFQNMDGKELCKMNKEDFLRATTLYNTRVLLSHLSYLRES [E70R] | -0.335 ± 0.066 |
| NMTTNERRVIVPADPTLWTQEHVRQWLEWAIKEYSLMEIDTSFFQNMDGKELCKMNKEDFLRATTLYNTNVLLSHLSYLRES [E70N] | -0.124 ± 0.28 |
